# Measured values taken from US20260109776A1 (Amgen, published 2026).
# Read-outs that look alike come from different tables or passages of the source.
# B1: anti-mesothelin antibody 7G11 (antibody, V domains shown)
# VH: EVQLVESGGGLIQPGGSLRLSCAVSGFTVSSKFMTWVRQAPGKGLEWVSVIYSGGKTYYADSVKGRFTISRDNSKNTLYLQMNSLRAEDTAVYYCARDSGGWGYFDYWGQGTLVTVSS
# VL: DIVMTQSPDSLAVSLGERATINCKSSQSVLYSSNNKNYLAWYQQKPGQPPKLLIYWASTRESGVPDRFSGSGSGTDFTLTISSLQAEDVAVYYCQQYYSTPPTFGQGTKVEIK
# B2: 6052-2 (bispecific antibody)
# heavy: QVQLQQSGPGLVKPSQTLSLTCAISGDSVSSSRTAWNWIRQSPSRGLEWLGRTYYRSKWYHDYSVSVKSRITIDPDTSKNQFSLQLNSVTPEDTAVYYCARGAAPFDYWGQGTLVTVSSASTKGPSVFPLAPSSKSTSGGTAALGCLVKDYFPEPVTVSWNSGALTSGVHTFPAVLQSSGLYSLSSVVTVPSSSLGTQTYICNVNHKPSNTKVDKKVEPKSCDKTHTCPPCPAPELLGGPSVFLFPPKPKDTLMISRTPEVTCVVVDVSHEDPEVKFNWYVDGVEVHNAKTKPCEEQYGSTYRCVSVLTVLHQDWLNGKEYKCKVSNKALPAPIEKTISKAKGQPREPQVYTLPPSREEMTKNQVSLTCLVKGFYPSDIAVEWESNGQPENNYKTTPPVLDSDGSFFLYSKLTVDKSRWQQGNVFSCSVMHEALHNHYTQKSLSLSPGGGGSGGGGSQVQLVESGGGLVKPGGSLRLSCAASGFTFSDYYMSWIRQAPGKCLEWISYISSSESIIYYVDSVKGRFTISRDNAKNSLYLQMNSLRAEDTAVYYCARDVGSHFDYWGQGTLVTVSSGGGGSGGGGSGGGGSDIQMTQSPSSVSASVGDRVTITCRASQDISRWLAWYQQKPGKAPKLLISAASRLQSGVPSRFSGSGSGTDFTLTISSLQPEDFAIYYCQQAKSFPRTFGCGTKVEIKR
# light: EIVLTQSPGTLSLSPGERATLSCRASQSVSSNYLAWYQQKPGQAPRALIYAASNRAAGISDRFSGSGSGTDFTLTISRLEPEDFAVYFCQQYGSSPLTFGGGTKVEIKRTVAAPSVFIFPPSDEQLKSGTASVVCLLNNFYPREAKVQWKVDNALQSGNSQESVTEQDSKDSTYSLSSTLTLSKADYEKHKVYACEVTHQGLSSPVTKSFNRGEC
# notes: IgG-scFv: IgG (CD40) 36F3, scFv (MSLN) 6F4; also called 6052-3
# B3: Anti-CD40xMSLN IgG-Fab molecule 5968-1 (bispecific antibody)
# chain 1: QVQLVESGGGLVKPGGSLRLSCAASGFTFSDYYMSWIRQAPGKGLEWISYISSSESIIYYVDSVKGRFTISRDNAKNSLYLQMNSLRAEDTAVYYCARDVGSHFDYWGQGTLVTVSS
# chain 2: DIQMTQSPSSVSASVGDRVTITCRASQDISRWLAWYQQKPGKAPKLLISAASRLQSGVPSRFSGSGSGTDFTLTISSLQPEDFAIYYCQQAKSFPRTFGQGTKVEIKR
# chain 3: EVQLLESGGGLVQPGGSLRLSCAASGFTFSRNAMSWVRQAPGKGLEWVSATGGSGISTYYADSVKGRFTISRDNSKNTLYLQMNSLRAEDTAVYYCARGYSNSWWYFDYWGQGTLVTVSS
# chain 4: QSALTQPASVSGSPGQSITISCTGTSSDVGNYNLVSWYQQHPGKAPKLMIFEVNQRPSGVSNRFSGSKSGTTASLTISGLQAADEADYFCCSYTTSSTYVIFGGGTKLTVLGQPKAAPSVTLFPPSSEELQANKATLVCLISDFYPGAVTVAWKADSSPVKAGVETTTPSKQSNNKYAASSYLSLTPEQWKSHRSYSCQVTHEGSTVEKTVAPTECS
# B4: Anti-CD40xMSLN IgG-Fab molecule 5973-1 (bispecific antibody)
# chain 1: QVQLVESGGGLVKPGGSLRLSCAASGFTFSDYYMSWIRQAPGKGLEWISYISSSESIIYYVDSVKGRFTISRDNAKNSLYLQMNSLRAEDTAVYYCARDVGSHFDYWGQGTLVTVSS
# chain 2: DIQMTQSPSSVSASVGDRVTITCRASQDISRWLAWYQQKPGKAPKLLISAASRLQSGVPSRFSGSGSGTDFTLTISSLQPEDFAIYYCQQAKSFPRTFGQGTKVEIKR
# chain 3: QVQLVESGGGLVKPGGSLRLSCAASEFTFSDYYMSWIRQAPGKGLEWVSYISRSGDTIYYADSVKGRFTISRDNAKNSLYLQMNGLRAEDTAVYYCARDLAAGATGGLDCWGQGTLVTVSS
# chain 4: SYELTQPPSVSVSPGQTASITCSGERLGNKYICWYQQKPGQSPVLVIYQDFKRPSGIPERFSGSNSGITATLTISGTQAMDEADYYCQAWDSRTVVFGGGTKLTVLG
# B5: Anti-CD40xMSLN IgG-Fab molecule 5987-1 (bispecific antibody)
# chain 1: QVQLVQSGAEVTKPGASVKVSCKASGYTFAGYYMHWVRQAPGQGLEWMGWINPHSGGTNYAQKFQDRVTMTRDTSINTAYMELSRLRSDDTAVYYCARERISMVRGVGHNWFAPWGQGTLVTVSS
# chain 2: DIQMTQSPSSLSASVGDRVTITCRASQDISNNLAWFQQKPGKPPKSLMYAASSLHSGVPSTFSGSGSGTDFTFTISSLQPEDFATYYCQQYNSYPLTFGGGTKVEIRR
# chain 3: QVQLVESGGGLVKPGGSLRLSCAASGFTFSDYYMSWIRQAPGKGLEWISYISSSESIIYYVDSVKGRFTISRDNAKNSLYLQMNSLRAEDTAVYYCARDVGSHFDYWGQGTLVTVSS
# chain 4: DIQMTQSPSSVSASVGDRVTITCRASQDISRWLAWYQQKPGKAPKLLISAASRLQSGVPSRFSGSGSGTDFTLTISSLQPEDFAIYYCQQAKSFPRTFGQGTKVEIKR
# B6: Anti-CD40xMSLN IgG-Fab molecule 5972-1 (bispecific antibody)
# chain 1: QVQLVESGGGLVKPGGSLRLSCAASGFTFSDYYMSWIRQAPGKGLEWISYISSSESIIYYVDSVKGRFTISRDNAKNSLYLQMNSLRAEDTAVYYCARDVGSHFDYWGQGTLVTVSS
# chain 2: DIQMTQSPSSVSASVGDRVTITCRASQDISRWLAWYQQKPGKAPKLLISAASRLQSGVPSRFSGSGSGTDFTLTISSLQPEDFAIYYCQQAKSFPRTFGQGTKVEIKR
# chain 3: QVQLQQSGPGLVKPSQTLSLTCAISGDSVSSSRTAWNWIRQSPSRGLEWLGRTYYRSKWYHDYSVSVKSRITIDPDTSKNQFSLQLNSVTPEDTAVYYCARGAAPFDYWGQGTLVTVSS
# chain 4: EIVLTQSPGTLSLSPGERATLSCRASQSVSSNYLAWYQQKPGQAPRALIYAASNRAAGISDRFSGSGSGTDFTLTISRLEPEDFAVYFCQQYGSSPLTFGGGTKVEIKR
# B7: Anti-CD40xMSLN IgG-Fab molecule 5970-1 (bispecific antibody)
# chain 1: QVQLVESGGGLVKPGGSLRLSCAASGFTFSDYYMSWIRQAPGKGLEWISYISSSESIIYYVDSVKGRFTISRDNAKNSLYLQMNSLRAEDTAVYYCARDVGSHFDYWGQGTLVTVSS
# chain 2: DIQMTQSPSSVSASVGDRVTITCRASQDISRWLAWYQQKPGKAPKLLISAASRLQSGVPSRFSGSGSGTDFTLTISSLQPEDFAIYYCQQAKSFPRTFGQGTKVEIKR
# chain 3: QVQLVESGGGVVQPGRSLRLSCAASGFTFSSHGMHWVRQPPGKGLEWVAVIWYDGSNEYYGDSVKGRFTISRDNSKNTLYLQMNSLRVEDTAVYYCTRGGGHWNYEGHYYGMDVWGQGTTVTVSS
# chain 4: QAVPTQPSSLSASPGASASLTCTLRSGINVGSSRIYWYQQKPGSPPQFLLRYTSDSDKLQGSGVPSRFSGSKDASANAGLLLISGLQSEDEADYYCMIWHSSAVVFGGGTKLTVLG
# What was measured:
# [1] = molecular target: T1, soluble recombinant cynomolgus monkey mesothelin (cynomolgus monkey); assay: Octet, soluble recombinant cyno MSLN
# T1 chain: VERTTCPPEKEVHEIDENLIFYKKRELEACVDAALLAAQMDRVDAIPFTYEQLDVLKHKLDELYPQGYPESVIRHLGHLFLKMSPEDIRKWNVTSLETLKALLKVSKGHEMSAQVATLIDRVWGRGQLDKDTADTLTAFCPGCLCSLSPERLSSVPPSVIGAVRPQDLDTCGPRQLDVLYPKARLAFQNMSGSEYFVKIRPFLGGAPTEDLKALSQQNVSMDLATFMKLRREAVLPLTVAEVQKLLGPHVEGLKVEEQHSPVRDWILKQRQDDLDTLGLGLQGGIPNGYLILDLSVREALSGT
# [2] = molecular target: T2, cynoMSLN(296-598) (cynomolgus monkey); assay: Octet
# T2 chain: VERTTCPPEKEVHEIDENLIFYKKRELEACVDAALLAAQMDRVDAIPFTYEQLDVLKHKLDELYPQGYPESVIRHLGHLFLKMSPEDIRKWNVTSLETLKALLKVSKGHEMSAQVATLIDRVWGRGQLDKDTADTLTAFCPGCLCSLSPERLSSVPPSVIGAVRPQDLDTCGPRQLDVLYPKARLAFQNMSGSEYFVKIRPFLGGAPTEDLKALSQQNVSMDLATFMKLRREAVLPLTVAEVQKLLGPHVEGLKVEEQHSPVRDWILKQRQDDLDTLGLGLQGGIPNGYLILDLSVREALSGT
# Method: (§1) A panel of mesothelin×CD40 bispecific antibodies were generated in the IgG-scFv format (Table 13) and evaluated for binding to soluble forms of human and cynomolgus monkey CD40 and human and cynomolgus monkey mesothelin using the Octet assay (Table 14). Association rate (Kon), disassociation rate (Kdis), and equilibrium binding constant (KD) were calculated. […] These bispecific antibodies were next evaluated for their ability to induce mesothelin-dependent activation of human B cells. CHO cells expressing human mesothelin were seeded into a 96 well plate. The next day varying concentrations of the mesothelin×CD40 IgG-scFv antibodies were added to the wells along with purified human B cells and the plates were incubated for an additional 48 hours. Upregulation of CD86, a marker of CD40-mediated B cell activation, was quantified on B cells by flow cytometry.
# [3] = molecular target: T3, cynoCD40(1-193) (cynomolgus monkey, UniProt P25942 21-193 (human entry)); assay: Octet
# T3 construct: also called soluble cynomolgus monkey CD40
# T3 chain: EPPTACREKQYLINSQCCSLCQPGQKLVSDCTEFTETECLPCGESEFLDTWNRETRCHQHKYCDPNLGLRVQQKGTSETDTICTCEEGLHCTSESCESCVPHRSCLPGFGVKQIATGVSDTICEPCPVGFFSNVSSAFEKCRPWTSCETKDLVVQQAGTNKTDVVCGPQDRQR
# Method: as §1
# [4] = molecular target: T4, huCD40(1-193) (human, UniProt P25942 21-193); assay: Octet
# T4 construct: also called soluble human CD40
# Method: as §1
# [5] = molecular target: T5, huMSLN(296-598) (human, UniProt Q13421 296-598); assay: Octet
# T5 construct: also called soluble human mesothelin
# Method: as §1
# T5 sequence (Q13421 other isoform, or with tags, fused parts or gaps): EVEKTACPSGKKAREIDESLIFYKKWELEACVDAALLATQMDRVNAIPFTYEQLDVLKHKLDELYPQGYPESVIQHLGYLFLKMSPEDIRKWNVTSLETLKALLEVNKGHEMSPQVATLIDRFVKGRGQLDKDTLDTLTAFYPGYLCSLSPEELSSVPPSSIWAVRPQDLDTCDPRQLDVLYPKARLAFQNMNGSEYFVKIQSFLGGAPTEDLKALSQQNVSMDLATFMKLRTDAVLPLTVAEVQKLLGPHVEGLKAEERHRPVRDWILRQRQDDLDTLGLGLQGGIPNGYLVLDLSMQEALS
# [6] = molecular target: T6, human CD40 (human, UniProt P25942 21-277); assay: cell-based or functional assay
# [7] = molecular target: T6, human CD40; assay: cell-based or functional assay; remark: listed apart in the source
# [8] = molecular target: human CD40 on purified human B cells (human, UniProt P25942 21-277); assay: cell-based or functional assay
# [9] = molecular target: huMSLN(296-598) (human, UniProt Q13421 296-598); assay: Octet, soluble antigen
# Target sequence in this assay (Q13421 other isoform, or with tags, fused parts or gaps): as above
# [10] = molecular target: T7, huCD40(1-193) (human, UniProt P25942 21-193); assay: Octet, soluble antigen
# T7 construct: Soluble form used in Octet; also called human CD40; soluble human CD40
# [11] = molecular target: T8, cynoCD40(1-193) (cynomolgus monkey, UniProt P25942 21-193 (human entry)); assay: Octet, soluble antigen
# T8 construct: Soluble form used in Octet; also called cynomolgus monkey CD40
# T8 chain: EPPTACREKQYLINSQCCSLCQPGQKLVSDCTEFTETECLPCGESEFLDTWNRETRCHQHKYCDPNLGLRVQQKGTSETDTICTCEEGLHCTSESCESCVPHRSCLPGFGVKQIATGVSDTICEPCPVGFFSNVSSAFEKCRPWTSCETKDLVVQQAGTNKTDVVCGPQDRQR
Binder,"EC50 (nM), CD86 upregulation on human B cells in the presence of CHO cells expressing human mesothelin [8] [nM]",Kd [9] [pM],koff [9] [s⁻¹],kon [9] [M⁻¹ s⁻¹],Kd [10] [pM],koff [10] [s⁻¹],kon [10] [M⁻¹ s⁻¹],Kd [11] [pM],koff [11] [s⁻¹],kon [11] [M⁻¹ s⁻¹],further results
B1,–,–,–,–,–,–,–,–,–,–,Kd [1]: 6400 pM; koff [1]: 0.00188 s⁻¹; kon [1]: 294000 M⁻¹ s⁻¹
B2,–,–,–,–,–,–,–,–,–,–,"Kd [2]: 19000 pM; koff [2]: 0.00519 s⁻¹; kon [2]: 269000 M⁻¹ s⁻¹; Kd [3]: 3300 pM; koff [3]: 0.00035 s⁻¹; kon [3]: 105000 M⁻¹ s⁻¹; Kd [4]: 2500 pM; koff [4]: 0.000556 s⁻¹; kon [4]: 218000 M⁻¹ s⁻¹; Kd [5]: 700 pM; koff [5]: 0.000533 s⁻¹; kon [5]: 713000 M⁻¹ s⁻¹; EC50 (nM), CD86 upregulation on human B cells with huMSLN-CHO cells [6]: 0.00445 nM; EC50 (nM), CD86 upregulation on human B cells with huMSLN-CHO cells [7]: 0.00316 nM"
B3,0.004,300,0.000353,1.03e+06,400,0.000256,650000,700,0.000414,598000,–
B4,0.006,500,0.000223,451000,600,0.000325,541000,600,0.000404,669000,–
B5,0.003,1000,0.000439,424000,700,0.000423,600000,700,0.000526,752000,–
B6,0.007,500,0.00027,568000,4000,0.000531,134000,1700,0.000137,80600,–
B7,0.005,300,0.000258,774000,1600,0.000395,245000,1300,0.000208,163000,–
